Target: T1, PNUTS(1-148), PNUTS amino-terminal domain (PAD) (UniProt Q96QC0 1-148)
T1 construct: PNUTS (PP1 nuclear targeting subunit), residues 1-148, termed PAD; Vector pET28-MHL (RRID:Addgene_26096) with N-terminal His6 tag and TEV site; Used 13C,15N-labelled in some NMR experiments; also called apo PAD; source: E. coli BL21 (DE3), purified (Ni-NTA, gel filtration)
T1 sequence (looked up): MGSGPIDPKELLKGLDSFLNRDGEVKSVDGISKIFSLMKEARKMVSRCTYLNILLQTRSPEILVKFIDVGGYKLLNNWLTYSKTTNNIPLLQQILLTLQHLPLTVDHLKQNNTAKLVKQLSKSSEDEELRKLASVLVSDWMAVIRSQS
Experiment: BLI; C-terminally biotinylated MYC constructs or N-terminally biotinylated peptides on SA biosensors, dipped into serial dilutions of PAD (WT or mutant); Octet RED384; room temperature; HBS-EP (10 mM HEPES pH 7.4, 150 mM NaCl, 3 mM EDTA, 0.005% P20) with 0.002 mg/ml BSA; Kd from steady-state response curves; apparent
Details: both partners purified

- Kd: 3.5 µM
B1: biotinylated MYC(1-88) with C-terminal AVI tag (domain or fragment, UniProt P01106-2 16-103, looked up)
chain: MPLNVSFTNRNYDLDYDSVQPYFYCDEEENFYQQQQQSELQPPAPSEDIWKKFELLPTPPLSPSRRSGLCSPSYVAVTPFSLRGDNDG
modifications: biotin on the C-terminal AVI tag
notes: MYC, residues 1-88 (contains MB0 and MBI); Purified 'as described above'; also called wild-type MYC(1-88); recombinant biotinylated MYC N-terminal protein; source: E. coli BL21 (DE3)-BirA, biotinylated by co-expressed BirA, purified; not shown: AVI tag, C-terminal, kept
